From PMC8421139 come the findings set out here.

Common to all, as to experiment: EMSA
(Mobility shift assays separate free from complexed probe on a gel.)

The target in data set [1] is TDRD3 E691K (UniProt A0ACI8Q7A3 1-93+Q9H7E2:1-651, E598K;internal_change).
Data set [2] addresses T1, GST-TDRD3 UBA (UniProt Q9H7E2 193-233).
T1 chain: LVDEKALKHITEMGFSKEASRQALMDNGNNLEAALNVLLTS

The target in data set [3] is GST-TDRD3 Tudor (UniProt Q9H7E2 555-615).

With CCTCGCAAACTACTTAGATGTCATCCGCGAGC (ssDNA) [ssDNA probe (R-loop forward oligo)], the binding result is “binds” in data set [1], “no binding” in data set [2] and “no binding” in data set [3].
